Data on 2 molecules can be found in PMC8331134, “Increased expression of ANAC017 primes for accelerated senescence”.

In data set [1] the target is T1, ANAC017 (lacking C-terminal transmembrane domain) (Arabidopsis thaliana, UniProt Q9XIC5 1-525).
T1 sequence: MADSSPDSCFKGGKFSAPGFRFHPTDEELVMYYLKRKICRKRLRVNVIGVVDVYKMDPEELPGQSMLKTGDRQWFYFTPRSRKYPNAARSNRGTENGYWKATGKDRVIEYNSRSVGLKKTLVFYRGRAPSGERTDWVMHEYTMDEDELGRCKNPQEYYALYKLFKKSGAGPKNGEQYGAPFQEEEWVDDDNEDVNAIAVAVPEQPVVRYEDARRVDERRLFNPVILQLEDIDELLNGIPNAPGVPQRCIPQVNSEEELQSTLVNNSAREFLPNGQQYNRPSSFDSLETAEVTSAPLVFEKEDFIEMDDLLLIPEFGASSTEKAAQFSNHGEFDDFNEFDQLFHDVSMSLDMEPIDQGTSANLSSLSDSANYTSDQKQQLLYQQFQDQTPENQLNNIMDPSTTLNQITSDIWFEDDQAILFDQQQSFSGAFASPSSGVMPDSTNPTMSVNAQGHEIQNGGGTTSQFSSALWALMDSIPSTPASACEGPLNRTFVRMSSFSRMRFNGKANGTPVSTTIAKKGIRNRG
Nature of the data set: EMSA; clear shift, less than MDM1; Binding reactions as in Ng et al. 2013 (buffer, pH, temperature not given); 12% acrylamide 0.5x TBE gels. As to conditions: protein: recombinant; tags: GST (pDEST15); chain copies: 2; label: 32P 5' end (T4 PNK).

Data set [2] addresses T1, ANAC017 (lacking C-terminal …). Nature of the data set: EMSA; stronger than MDM2; Binding reactions as in Ng et al. 2013 (buffer, pH, temperature not given); 12% acrylamide 0.5x TBE gels. As to conditions: protein: recombinant; tags: GST (pDEST15); chain copies: 2; label: 32P 5' end (T4 PNK).

B1: ANAC016 intron 1 MDM2 probe (dsDNA)
DNA 1: GATTTGTTGAGTATATGACAAGGAAACGTCTTTATTCACT
DNA 2: AGTGAATAAAGACGTTTCCTTGTCATATACTCAACAAATC
In the case of B1, the binding result in data set [1] was “binds”.

B2: ANAC016 intron 1 MDM1 probe (dsDNA)
DNA 1: GATGTAGTTGAGTATATGACAAGGAAAAGTTTTGGTTGTT
DNA 2: AACAACCAAAACTTTTCCTTGTCATATACTCAACTACATC
Consider B2, for which the binding result in data set [2] is on record as “binds”.
